In general, Kd refers to the constant that tells how readily two partners part at equilibrium. High values mean lower affinity, low ones higher affinity.

We go through one substance from PMC2115487.

In the assay the target is TGF-beta receptor(s) on CCL64 mink lung epithelial cells (mink (endogenous in CCL64)). As to the kind of experiment: radioligand binding.

“Human TGF-beta (type 1), 125I-labeled (ligand)”: the Kd turned out to be 8.3 pM; the increase of specific binding with 100 ug/ml heparin over no heparin amounted to 46%; the specific binding, cpm of the 100% value (without heparin) turned out to be 325 cpm.
